Broadly, the Kd is the constant that tells how readily two partners part at equilibrium. Read a low Kd as higher affinity. What is called koff is the rate constant with which the complex falls apart. Low readings indicate slow dissociation, high ones fast dissociation. A word on the kon: it is the rate constant with which the complex forms. Higher therefore signals faster complex formation.

The target of test [1] is T1, Nipah virus attachment (receptor-binding) glycoprotein (GP), wild type (Nipah virus; strain of the assayed …, UniProt Q9IH62).
T1 construct: source: HEK 293-F FreeStyle, transiently transfected, purified from supernatant (Ni-NTA)
The test can be described thus: BLI. Conditions: both partners purified.

In test [2] the target is T1, Nipah virus attachment …. The test can be described thus: ELISA. As to conditions: both partners purified.

B1: monoclonal antibody m102.4 (wild type) (antibody, V domains shown)
VH: EVQVIQSGADVKKPGSSVKVSCKSSGGTFSKYAINWVRQAPGQGLEWMGGIIPILGIANYAQKFQGRVTITTDESTSTAYMELSSLRSEDTAVYYCARGWGREQLAPHPSQYYYYYYGMDVWGQGTTVTVSS
VL: EIVMTQSPGTLSLAPGERATLSCWASQSVRNNYLAWYQQKPGQAPRLVIYNGSTRATGIPDRFSGSGSGTDFTLTISRLDPEDFAVYYCQQYGNSRRVTFGGGTKVEIK
notes: also called wild-type Nipah antibody; anti-Nipah mAb
As for B1, in test [1], the Kd is 70 ± 10 pM, the dissociation rate constant (koff) amounted to 4.53e-05 s⁻¹ and the kon amounted to 646000 M⁻¹ s⁻¹. Besides, the Kd in test [2] stood at 120 pM.

For the origin of these results see article PMC7588459 (Scientific Reports, 2020).
